# From publication PMC11756183
# Assay: IP and western blot in MSC-T
# Conditions: glycan lost; control: wild-type GPNMB (MSC-T/OEG)
protein,measurement,value
GPNMB (Glycoprotein non-metastatic melanoma protein B): N249Q (protein) parent chain: MESLCGVLGFLLLAAGLPLQAAKRFRDVLGHEQYPDHMREHNQLRGWSSDENEWDEHLYPVWRRGDGRWKDSWEGGRVQAVLTSDSPALVGSNITFVVNLVFPRCQKEDANGNIVYEKNCRNDLGLTSDLHVYNWTAGADDGDWEDGTSRSQHLRFPDRRPFPRPHGWKKWSFVYVFHTLGQYFQKLGRCSARVSINTVNLTAGPQVMEVTVFRRYGRAYIPISKVKDVYVITDQIPVFVTMSQKNDRNLSDEIFLRDLPIVFDVLIHDPSHFLNDSAISYKWNFGDNTGLFVSNNHTLNHTYVLNGTFNLNLTVQTAVPGPCPPPSPSTPPPPSTPPSPPPSPLPTLSTPSPSLMPTGYKSMELSDISNENCRINRYGYFRATITIVEGILEVSIMQIADVPMPTPQPANSLMDFTVTCKGATPMEACTIISDPTCQIAQNRVCSPVAVDGLCLLSVRRAFNGSGTYCVNFTLGDDASLALTSTLISIPGKDPDSPLRAVNGVLISIGCLAVLVTMVTILLYKKHKAYKPIGNCPRNTVKGKGLSVLLSHAKAPFFRGDQEKDPLLQDKPRTL,expression_or_secretion,decreases
